Laboratory results: PMC9433092, “Closely related type II-C Cas9 orthologs recognize diverse PAMs”

T1: Nsp2Cas9 (Neisseria sp. WF04, UniProt A0A4Y9GBC9)
T1 sequence: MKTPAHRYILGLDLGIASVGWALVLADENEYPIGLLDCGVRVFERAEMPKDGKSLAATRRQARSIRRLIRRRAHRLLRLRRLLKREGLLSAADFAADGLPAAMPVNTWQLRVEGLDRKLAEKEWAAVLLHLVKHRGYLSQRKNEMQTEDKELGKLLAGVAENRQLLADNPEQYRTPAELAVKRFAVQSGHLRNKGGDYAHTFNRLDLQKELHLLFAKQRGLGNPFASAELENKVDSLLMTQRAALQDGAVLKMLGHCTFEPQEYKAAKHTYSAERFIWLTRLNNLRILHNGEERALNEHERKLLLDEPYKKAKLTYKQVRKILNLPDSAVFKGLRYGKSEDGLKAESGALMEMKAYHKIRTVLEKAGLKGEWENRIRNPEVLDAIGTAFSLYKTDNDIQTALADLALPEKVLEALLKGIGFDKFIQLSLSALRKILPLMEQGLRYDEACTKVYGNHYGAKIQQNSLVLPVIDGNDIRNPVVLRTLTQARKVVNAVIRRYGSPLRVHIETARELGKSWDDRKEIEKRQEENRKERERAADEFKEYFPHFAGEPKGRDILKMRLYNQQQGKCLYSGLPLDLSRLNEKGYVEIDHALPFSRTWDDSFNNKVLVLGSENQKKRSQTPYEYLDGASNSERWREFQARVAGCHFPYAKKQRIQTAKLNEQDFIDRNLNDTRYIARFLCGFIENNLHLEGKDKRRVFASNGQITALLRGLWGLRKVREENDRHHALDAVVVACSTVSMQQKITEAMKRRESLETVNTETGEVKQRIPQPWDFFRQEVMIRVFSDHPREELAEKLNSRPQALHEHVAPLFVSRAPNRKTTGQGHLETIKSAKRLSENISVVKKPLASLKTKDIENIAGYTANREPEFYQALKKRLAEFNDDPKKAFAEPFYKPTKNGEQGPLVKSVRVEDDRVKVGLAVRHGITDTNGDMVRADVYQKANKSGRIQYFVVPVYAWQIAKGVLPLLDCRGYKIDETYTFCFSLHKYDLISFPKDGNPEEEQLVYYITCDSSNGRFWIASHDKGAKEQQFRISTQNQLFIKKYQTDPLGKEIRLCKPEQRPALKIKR

B1: AAVS1 A46 (mixed)
RNA: GAAGCCUGAGCGCCUCUCCUGGGGUUGUAGCUCCCUUUCUCAUUUCGGAAACGAAAUGAGAACCGUUGCUACAAUAAGGCCGUCUGAAAAGAUGUGCCGCAACGCUCUGCCCCUUAAAGCUUCUGCUUUAAGGGGCAUCGUUUAUUUUUUU
DNA 1: AAGCCTGAGCGCCTCTCCTGGGCTTGCCAA
DNA 2: TTGGCAAGCCCAGGAGAGGCGCTCAGGCTT
B2: GRIN2B G5 (mixed)
RNA: GUUUACAAUGAGAGACAAUACUGGUUGUAGCUCCCUUUCUCAUUUCGGAAACGAAAUGAGAACCGUUGCUACAAUAAGGCCGUCUGAAAAGAUGUGCCGCAACGCUCUGCCCCUUAAAGCUUCUGCUUUAAGGGGCAUCGUUUAUUUUUUU
DNA 1: TTTACAATGAGAGACAATACTGGCATCCAA
DNA 2: TTGGATGCCAGTATTGTCTCTCATTGTAAA
B3: VEGFA V21 (mixed)
RNA: GUCUCGAGGUAGCCCCAGCCCGGGUUGUAGCUCCCUUUCUCAUUUCGGAAACGAAAUGAGAACCGUUGCUACAAUAAGGCCGUCUGAAAAGAUGUGCCGCAACGCUCUGCCCCUUAAAGCUUCUGCUUUAAGGGGCAUCGUUUAUUUUUUU
DNA 1: TCTCGAGGTAGCCCCAGCCCGGGGATCCAG
DNA 2: CTGGATCCCCGGGCTGGGGCTACCTCGAGA
B4: AAVS1 A10 (mixed)
RNA: GGGUCUGAGGGUGGAGGGACUGGUUGUAGCUCCCUUUCUCAUUUCGGAAACGAAAUGAGAACCGUUGCUACAAUAAGGCCGUCUGAAAAGAUGUGCCGCAACGCUCUGCCCCUUAAAGCUUCUGCUUUAAGGGGCAUCGUUUAUUUUUUU
DNA 1: GGGTCTGAGGGTGGAGGGACTGGGGGCC
DNA 2: GGCCCCCAGTCCCTCCACCCTCAGACCC
B5: AAVS1 A30 (mixed)
RNA: GAGGGAGGAGAGAUGCCCGGAGAGUUGUAGCUCCCUUUCUCAUUUCGGAAACGAAAUGAGAACCGUUGCUACAAUAAGGCCGUCUGAAAAGAUGUGCCGCAACGCUCUGCCCCUUAAAGCUUCUGCUUUAAGGGGCAUCGUUUAUUUUUUU
DNA 1: AGGGAGGAGAGATGCCCGGAGAGGACCCAG
DNA 2: CTGGGTCCTCTCCGGGCATCTCTCCTCCCT
B6: AAVS1 A3 (mixed)
RNA: GCAGCGCAAAGUGACAAUGGCCGUUGUAGCUCCCUUUCUCAUUUCGGAAACGAAAUGAGAACCGUUGCUACAAUAAGGCCGUCUGAAAAGAUGUGCCGCAACGCUCUGCCCCUUAAAGCUUCUGCUUUAAGGGGCAUCGUUUAUUUUUUU
DNA 1: GCAGCGCAAAGTGACAATGGCCAGGGCC
DNA 2: GGCCCTGGCCATTGTCACTTTGCGCTGC
B7: AAVS1 A33 (mixed)
RNA: GUGAGAAUGGUGCGUCCUAGGUGGUUGUAGCUCCCUUUCUCAUUUCGGAAACGAAAUGAGAACCGUUGCUACAAUAAGGCCGUCUGAAAAGAUGUGCCGCAACGCUCUGCCCCUUAAAGCUUCUGCUUUAAGGGGCAUCGUUUAUUUUUUU
DNA 1: TGAGAATGGTGCGTCCTAGGTGTTCACCAG
DNA 2: CTGGTGAACACCTAGGACGCACCATTCTCA
B8: GRIN2B G1 (mixed)
RNA: GCCCAUCAAGCUGGGCUCCAAGGGUUGUAGCUCCCUUUCUCAUUUCGGAAACGAAAUGAGAACCGUUGCUACAAUAAGGCCGUCUGAAAAGAUGUGCCGCAACGCUCUGCCCCUUAAAGCUUCUGCUUUAAGGGGCAUCGUUUAUUUUUUU
DNA 1: CCCATCAAGCTGGGCTCCAAGGAGGGCCAA
DNA 2: TTGGCCCTCCTTGGAGCCCAGCTTGATGGG
B9: EMX1 E1 (mixed)
RNA: GAAUGUGGUGCUUGAGAAGUGGAGUUGUAGCUCCCUUUCUCAUUUCGGAAACGAAAUGAGAACCGUUGCUACAAUAAGGCCGUCUGAAAAGAUGUGCCGCAACGCUCUGCCCCUUAAAGCUUCUGCUUUAAGGGGCAUCGUUUAUUUUUUU
DNA 1: AATGTGGTGCTTGAGAAGTGGATGGCCCAA
DNA 2: TTGGGCCATCCACTTCTCAAGCACCACATT
B10: AAVS1 A7 (mixed)
RNA: GUCUGUCCCCUCCACCCCACAGUGUUGUAGCUCCCUUUCUCAUUUCGGAAACGAAAUGAGAACCGUUGCUACAAUAAGGCCGUCUGAAAAGAUGUGCCGCAACGCUCUGCCCCUUAAAGCUUCUGCUUUAAGGGGCAUCGUUUAUUUUUUU
DNA 1: TCTGTCCCCTCCACCCCACAGTGGGGCC
DNA 2: GGCCCCACTGTGGGGTGGAGGGGACAGA
B11: VEGFA V17 (mixed)
RNA: GCCGGGACCCUCCACUCCUCCUGGUUGUAGCUCCCUUUCUCAUUUCGGAAACGAAAUGAGAACCGUUGCUACAAUAAGGCCGUCUGAAAAGAUGUGCCGCAACGCUCUGCCCCUUAAAGCUUCUGCUUUAAGGGGCAUCGUUUAUUUUUUU
DNA 1: CCGGGACCCTCCACTCCTCCTGGGCCCCAA
DNA 2: TTGGGGCCCAGGAGGAGTGGAGGGTCCCGG
B12: VEGFA V54 (mixed)
RNA: GCUGUCCCCUCCUGAGCCCAUGGGUUGUAGCUCCCUUUCUCAUUUCGGAAACGAAAUGAGAACCGUUGCUACAAUAAGGCCGUCUGAAAAGAUGUGCCGCAACGCUCUGCCCCUUAAAGCUUCUGCUUUAAGGGGCAUCGUUUAUUUUUUU
DNA 1: CTGTCCCCTCCTGAGCCCATGGGCAACCAT
DNA 2: ATGGTTGCCCATGGGCTCAGGAGGGGACAG
B13: VEGFA V36 (mixed)
RNA: GAGGAAACGACCUGGGACCACCUGUUGUAGCUCCCUUUCUCAUUUCGGAAACGAAAUGAGAACCGUUGCUACAAUAAGGCCGUCUGAAAAGAUGUGCCGCAACGCUCUGCCCCUUAAAGCUUCUGCUUUAAGGGGCAUCGUUUAUUUUUUU
DNA 1: AGGAAACGACCTGGGACCACCTGTTCCCAA
DNA 2: TTGGGAACAGGTGGTCCCAGGTCGTTTCCT
B14: AAVS1 A59 (mixed)
RNA: GCUGGGACUUGGCCAGACACUGGUUGUAGCUCCCUUUCUCAUUUCGGAAACGAAAUGAGAACCGUUGCUACAAUAAGGCCGUCUGAAAAGAUGUGCCGCAACGCUCUGCCCCUUAAAGCUUCUGCUUUAAGGGGCAUCGUUUAUUUUUUU
DNA 1: GCTGGGACTTGGCCAGACACTGAGGTCCAG
DNA 2: CTGGACCTCAGTGTCTGGCCAAGTCCCAGC
B15: VEGFA V18 (mixed)
RNA: GAGGGGGGUGCCGAGGACCGAAGGUUGUAGCUCCCUUUCUCAUUUCGGAAACGAAAUGAGAACCGUUGCUACAAUAAGGCCGUCUGAAAAGAUGUGCCGCAACGCUCUGCCCCUUAAAGCUUCUGCUUUAAGGGGCAUCGUUUAUUUUUUU
DNA 1: AGGGGGGTGCCGAGGACCGAAGGGCACCAA
DNA 2: TTGGTGCCCTTCGGTCCTCGGCACCCCCCT
B16: VEGFA V60 (mixed)
RNA: GAAGGGUGAGUCUCAGGCCACAGGUUGUAGCUCCCUUUCUCAUUUCGGAAACGAAAUGAGAACCGUUGCUACAAUAAGGCCGUCUGAAAAGAUGUGCCGCAACGCUCUGCCCCUUAAAGCUUCUGCUUUAAGGGGCAUCGUUUAUUUUUUU
DNA 1: AAGGGTGAGTCTCAGGCCACAGGGACCCAA
DNA 2: TTGGGTCCCTGTGGCCTGAGACTCACCCTT
B17: AAVS1 A4 (mixed)
RNA: GCUCUGACCUGCAUUCUCUCCCCGUUGUAGCUCCCUUUCUCAUUUCGGAAACGAAAUGAGAACCGUUGCUACAAUAAGGCCGUCUGAAAAGAUGUGCCGCAACGCUCUGCCCCUUAAAGCUUCUGCUUUAAGGGGCAUCGUUUAUUUUUUU
DNA 1: CTCTGACCTGCATTCTCTCCCCTGGGCC
DNA 2: GGCCCAGGGGAGAGAATGCAGGTCAGAG
B18: AAVS1 A2 (mixed)
RNA: GUCAGCAUAGGGUGGCAAAGCCCGUUGUAGCUCCCUUUCUCAUUUCGGAAACGAAAUGAGAACCGUUGCUACAAUAAGGCCGUCUGAAAAGAUGUGCCGCAACGCUCUGCCCCUUAAAGCUUCUGCUUUAAGGGGCAUCGUUUAUUUUUUU
DNA 1: TCAGCATAGGGTGGCAAAGCCCAGGGCC
DNA 2: GGCCCTGGGCTTTGCCACCCTATGCTGA
B19: AAVS1 A41 (mixed)
RNA: GAGGACUGCAUGGGUCAGCACAGGUUGUAGCUCCCUUUCUCAUUUCGGAAACGAAAUGAGAACCGUUGCUACAAUAAGGCCGUCUGAAAAGAUGUGCCGCAACGCUCUGCCCCUUAAAGCUUCUGCUUUAAGGGGCAUCGUUUAUUUUUUU
DNA 1: AGGACTGCATGGGTCAGCACAGGCTGCCAA
DNA 2: TTGGCAGCCTGTGCTGACCCATGCAGTCCT

Biological target: T1, Nsp2Cas9
Test: HEK293T cells
Details: tags: NLS and HA tags, kept

| Binder | indel frequency [% indels] |
| --- | --- |
| B1 | 14.9 |
| B2 | 18.4 |
| B3 | 19 |
| B4 | 30.1 |
| B5 | 12.9 |
| B6 | 7.81 |
| B7 | 17.1 |
| B8 | 18.6 |
| B9 | 7.8 |
| B10 | 17.4 |
| B11 | 11.6 |
| B12 | 37 |
| B13 | 14.6 |
| B14 | 16.7 |
| B15 | 16.7 |
| B16 | 12.1 |
| B17 | 6.61 |
| B18 | 14.1 |
| B19 | 10.8 |
